Assay results published in patent US20170037124A1.

Tests used:
Experiment in all cases: SPR, blank anti-hFc surface, 500 nM peptide, 25C
[1] = target: peptide from the N-terminal coiled-coil region of human ANGPTL4 (hANGPTL4 peptide, SEQ ID NO: 339) (human)
[2] = target: peptide from the N-terminal coiled-coil region of human ANGPTL3 (hANGPTL3 peptide, SEQ ID NO: 338) (human)
[3] = target: human ANGPTL8 peptide (hANGPTL8 peptide, SEQ ID NO: 337) (human)
Sequence of human ANGPTL8 peptide (hANGPTL8 peptide, SEQ ID NO: 337) (human) (peptide, as listed by the source): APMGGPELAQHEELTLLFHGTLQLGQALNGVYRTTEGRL

Sequence of peptide from the N-terminal coiled-coil region of human ANGPTL3 (hANGPTL3 peptide, SEQ ID NO: 338) (human) (peptide, as listed by the source): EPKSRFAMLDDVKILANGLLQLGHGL
Sequence of peptide from the N-terminal coiled-coil region of human ANGPTL4 (hANGPTL4 peptide, SEQ ID NO: 339) (human) (peptide, as listed by the source): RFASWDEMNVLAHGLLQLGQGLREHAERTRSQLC

500 nM hAngPTL4 peptide Bound (RU) [1]: 0 RU
500 nM hANGPTL3 peptide Bound (RU) [2]: 0 RU
500 nM hANGPTL8 peptide Bound (RU) [3]: 3 RU
Substance: monoclonal mouse anti-human Fc antibody (GE, # BR-1008-39)
